According to US6558661 (Genentech, dated 2003):

B1: human IFN-γ receptor-IgG-1 immunoadhesin (hIFNγR-IgG-1) (Fc fusion, not shown: a dimerising Fc or GST)
chain: EMGTADLGPSSVPTPTNVTIESYNMNPIVYWEYQIMPQVPVFTVEVKNYGVKNSEWIDACINISHHYCNISDHVGDPSNSLWVRVKARVGQKESAYAKSEEFAVCRDGKIGPPKLDIRKEEKQIMIDIFHPSVFVNGDEQEVDYDPETTCYIRVYNVYVRMNGSEIQYKILTQKEDDCDEIQCQLAIPVSSLNSQYCVSAEGVLHVWGVTTEKSKEVCITIFNSSIKG
B2: recombinant human IFN-γ (ligand, UniProt P01579 24-166, looked up)
chain: QDPYVKEAENLKKYFNAGHSDVADNGTLFLGILKNWKEESDRKIMQSQIVSFYFKLFKNFKDDQSIQKSVETIKEDMNVKFFNSNKKKRDDFEKLTNYSVTDLNVQRKAIHELIQVMAELSPAAKTGKRKRSQMLFRGRRASQ
modifications: radioiodinated with 125I using lactoperoxidase in the binding assays and ligand blots; unlabeled as competitor and in cell assays
notes: also called hIFN-γ
B3: murine IFN-γ receptor-IgG-1 immunoadhesin (mIFNγR-IgG-1) (Fc fusion, UniProt P15261 26-254, looked up, not shown: a dimerising Fc or GST)
chain: ALTSTEDPEPPSVPVPTNVLIKSYNLNPVVCWEYQNMSQTPIFTVQVKVYSGSWTDSCTNISDHCCNIYEQIMYPDVSAWARVKAKVGQKESDYARSKEFLMCLKGKVGPPGLEIRRKKEEQLSVLVFHPEVVVNGESQGTMFGDGSTCYTFDYTVYVEHNRSGEILHTKHTVEKEECNETLCELNISVSTLDSRYCISVDGISSFWQVRTEKSKDVCIPPFHDDRKDS
B4: recombinant murine IFN-γ (ligand, UniProt P01580 23-155, looked up)
chain: HGTVIESLESLNNYFNSSGIDVEEKSLFLDIWRNWQKDGDMKILQSQIISFYLRLFEVLKDNQAISNNISVIESHLITTFFSNSKAKKDAFMSIAKFEVNNPQVQRQAFNELIRVVHQLLPESSLRKRKRSRC
modifications: radioiodinated with 125I using lactoperoxidase in the binding assays and ligand blots; unlabeled as competitor and in cell assays
notes: also called mIFN-γ

Tests used:
[1] = biological target: B2; assay: cell-based or functional assay
[2] = biological target: B1; assay: equilibrium binding of [125I]hIFN-γ to immunoadhesin immobilized on anti-human IgG Fc coated wells, Scatchard analysis
Protocol: (§1) IFNv binding assays. The binding of IFNγR-IgGs to IFN-γ was analyzed essentially as described [Ashkenazi et al., *Proc. Natl. Acad. Sci. USA* 88: 10535–10539 (1991)]. Each IFNγR-IgG (1 μg/ml) was immobilized onto microtiter wells coated with goat anti-human IgG Fc antibody. […] Nonspecific binding was determined by omitting IFNγR-IgGs.
(§2) Binding of IFNγR-IqG to IFN-γ. We investigated the binding of the human and murine immunoadhesins to IFN-γ by equilibrium binding analysis (FIG. 2). […] 135: 300–305 (1985); Ucer, et al, Int. J. Cancer 36: 103–108 (1985)].

[3] = biological target: B3; assay: competition binding assay with [125I]mIFN-γ on immobilized mIFNγR-IgG (data not shown)
Protocol: as §1, §2

[4] = biological target: B4; assay: cell-based or functional assay
[5] = biological target: B3; assay: equilibrium binding of [125I]mIFN-γ to immunoadhesin immobilized on anti-human IgG Fc coated wells, Scatchard analysis
Protocol: as §1, §2

[6] = biological target: B1; assay: competition binding assay with [125I]hIFN-γ on immobilized hIFNγR-IgG (data not shown)
Protocol: as §1, §2

Which results are given for B1?
inhibition of hIFN-γ antiviral effect in EMCV-infected human A549 cells, IC50 [1]: ~8 nM; inhibition of hIFN-γ induction of ICAM-1 in human HeLa cells, half-maximal inhibition (IC50) [1]: ~13 nM

B2 was tested. Which Kd [2] did it give?
The Kd was 1.5 nM.

Does B2 bind [3]?
Result: no binding

How did the “inhibition of mIFN-γ antiviral effect in EMCV-infected mouse L929 cells, IC50” value [4] turn out when B3 was run?
Its value is ~10 nM.

And the “inhibition of mIFN-γ induction of class I MHC antigen H-2Kk in mouse L929 cells, IC50” value [4]?
The value was ~10 nM.

Which results are given for B4?
Kd [5]: 3.3 nM; binding result [6]: no binding
